Test results reported in paper PMC4091835.

Columns and labels:
[1] = target: Cdc42_(G12V)–IRSp53 complex (BAR–SH3 FRET reporter titrated first with GMP-PNP–Cdc42_(G12V)) (human) (UniProt P60953); test: other fluorescence titration
[2] = target: IRSp53 BAR–SH3 double mutant P278D P281D (human); test: ITC
[3] = target: IRSp53 construct BAR–SH3 (human); test: ITC
[4] = target: BAR–SH3 FRET reporter (IRSp53 construct BAR–SH3 S452C, labelled with fluorescein maleimide and rhodamine maleimide) (human); test: other fluorescence titration
[5] = target: Eps8–IRSp53 complex (BAR–SH3 FRET reporter saturated with Eps8) (human) (UniProt Q12929); test: other fluorescence titration

Chain of Human Eps8 (Q12929 whole entry): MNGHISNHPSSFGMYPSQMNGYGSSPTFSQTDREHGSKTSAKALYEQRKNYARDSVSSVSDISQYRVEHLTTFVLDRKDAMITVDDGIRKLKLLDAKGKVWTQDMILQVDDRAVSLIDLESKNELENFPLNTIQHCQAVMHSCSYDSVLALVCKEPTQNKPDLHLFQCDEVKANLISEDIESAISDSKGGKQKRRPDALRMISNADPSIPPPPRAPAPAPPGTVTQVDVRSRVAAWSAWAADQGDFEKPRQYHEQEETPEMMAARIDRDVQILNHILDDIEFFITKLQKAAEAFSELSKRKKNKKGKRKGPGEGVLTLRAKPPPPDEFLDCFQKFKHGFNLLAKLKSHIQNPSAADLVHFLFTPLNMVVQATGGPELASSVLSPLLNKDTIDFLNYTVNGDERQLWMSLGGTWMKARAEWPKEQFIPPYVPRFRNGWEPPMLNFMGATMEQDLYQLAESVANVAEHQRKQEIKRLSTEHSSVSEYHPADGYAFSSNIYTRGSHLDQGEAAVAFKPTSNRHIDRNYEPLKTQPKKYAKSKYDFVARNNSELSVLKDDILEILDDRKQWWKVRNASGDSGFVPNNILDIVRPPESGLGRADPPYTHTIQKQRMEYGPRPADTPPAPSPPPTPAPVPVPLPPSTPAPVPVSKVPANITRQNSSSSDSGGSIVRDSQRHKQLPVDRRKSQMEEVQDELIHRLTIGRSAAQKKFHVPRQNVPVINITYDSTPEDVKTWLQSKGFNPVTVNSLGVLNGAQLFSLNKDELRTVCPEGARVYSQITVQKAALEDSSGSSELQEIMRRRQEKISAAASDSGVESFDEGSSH

| Kd [1] | Kd [2] | Kd [3] | Kd [4] | Kd [5] | Substance |
| --- | --- | --- | --- | --- | --- |
| 1.1 µM | – | – | – | – | Human Eps8 (from UniProt Q12929 1-822) (natural protein) |
| – | 10.7 µM | 4.7 µM | 2.4 µM | 10.7 µM | Human Cdc42 residues 1–178, constitutively active mutant G12V (from UniProt P60953 1-178) (domain or fragment) |
